Molecular target: the molecule itself
Assay: negative-staining electron microscopy

B1: recombinant glutathione S-transferase (GST)-SAM protein (GST fusion of the mouse Bicc1 SAM domain) (domain or fragment, UniProt Q99MQ1 875-938, looked up)
chain: FKGSDLPELFSKLGLGKYTDVFQQQEIDLQTFLTLTDQDLKELGITTFGARRKMLLAISELSKN
stoichiometry N: ~40 units
